In experiment [1] the target is recombinant human FcγRI (human) (UniProt P12314). Put plainly: ELISA: antibody coated (2 µg/ml), recombinant human FcγRI titrated, mouse anti-CD64 + HRP anti-mouse IgG, A450. (An ELISA detects its analyte on a solid surface through an enzyme-linked reagent.)
For experiment [2], the target named is control protein CTLA4-IgG1 (UniProt P16410 38-161, limits assumed). Put plainly: sandwich ELISA: protein coated (2 µg/ml), huCD40L titrated, biotinylated goat anti-CD40L polyclonal + streptavidin-HRP, A450.
Description: All washes were performed using 3 washes of 250 μl of PBS. […] The plate was washed and then blocked with 2% bovine serum albumin/PBS for 1 hour at room temperature. The plate was washed and recombinant human CD40L protein (Santa Cruz Biotechnology, Santa Cruz, California, USA) was added to the plate titrated out by 2-fold dilution starting at 2000 ng/ml. After binding and washing, the bound CD40L protein was detected using 100 μl a biotinylated goat anti-human CD40L polyclonal antibody (200 ng/ml) and 100 μl a streptavidin-horseradish peroxidase conjugate at 100 ng/ml. Colorimetric detection was performed with the chromagen TMB (3,3′,5,5′-tetramethylbenzidine) and spectrophotometric analysis of absorption at 450 nm.

The values that follow come from patent publication US20250334594A1 (ELEDON PHARMACEUTICALS, published 2025).

Broadly, the EC50 (read off the curve) is the concentration at which the effect is half-maximal.

recombinant human FcγRI (human), sequence (P12314 16-288 limits assumed): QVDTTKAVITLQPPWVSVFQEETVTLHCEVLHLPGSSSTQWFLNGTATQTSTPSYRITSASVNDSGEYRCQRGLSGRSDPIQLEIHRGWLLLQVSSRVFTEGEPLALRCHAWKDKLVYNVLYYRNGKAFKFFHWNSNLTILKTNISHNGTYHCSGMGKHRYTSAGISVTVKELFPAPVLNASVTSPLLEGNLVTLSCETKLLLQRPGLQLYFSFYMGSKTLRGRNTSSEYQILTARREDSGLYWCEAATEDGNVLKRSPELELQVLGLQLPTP
control protein CTLA4-IgG1, sequence (P16410 other isoform, or with tags, fused parts or gaps limits assumed): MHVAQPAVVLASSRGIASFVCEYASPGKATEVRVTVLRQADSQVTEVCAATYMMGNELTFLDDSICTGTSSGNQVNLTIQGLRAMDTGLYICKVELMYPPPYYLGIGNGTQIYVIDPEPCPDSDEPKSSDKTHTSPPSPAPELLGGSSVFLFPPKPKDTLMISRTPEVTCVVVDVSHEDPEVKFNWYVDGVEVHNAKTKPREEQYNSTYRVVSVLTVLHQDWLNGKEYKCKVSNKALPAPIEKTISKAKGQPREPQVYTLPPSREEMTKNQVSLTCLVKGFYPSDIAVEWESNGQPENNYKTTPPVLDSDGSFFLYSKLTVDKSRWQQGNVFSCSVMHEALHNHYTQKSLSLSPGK

Regarding “anti-CD40L antibody 5c8 (reference antibody)”, the EC50 (read off the curve) in experiment [1] is 0.2 µg/mL.

B1: recombinant human CD40L protein (Santa Cruz Biotechnology) (ligand, UniProt P29965 113-261, looked up)
chain: MQKGDQNPQIAAHVISEASSKTTSVLQWAEKGYYTMSNNLVTLENGKQLTVKRQGLYYIYAQVTFCSNREASSQAPFIASLCLKSPGRFERILLRAANTHSSAKPCGQQSIHLGGVFELQPGASVFVNVTDPSQVSHGTGFTSFGLLKL
notes: Bought reagent; also called CD154
On to B1, for which the binding result in experiment [2] is reported as “no binding (tested: 2 micrograms/mL)”.
